From publication PMC7907450

Experiments:
[1] = system: 30S ribosomal subunit initiation complex with IF1, IF2, IF3 and BPY-Met-tRNAfMet; assay: MST; conditions: MST: buffer TAKM7 (7 mM Mg2+; full composition not in material), 30 min at 37 C, A-site peptidyl-tRNA: buffer TAKM with 7-20 mM Mg2+, nitrocellulose …
[2] = system: 30S ribosomal subunit initiation complex without IF3 (IF1, IF2, BPY-Met-tRNAfMet); assay: MST; conditions: MST: buffer TAKM7 (7 mM Mg2+; full composition not in material), 30 min at 37 C, A-site peptidyl-tRNA: buffer TAKM with 7-20 mM Mg2+, nitrocellulose …
[3] = system: 30S ribosomal subunit initiation complex with IF1, IF2, IF3 and elongator BPY-Phe-tRNAPhe; assay: MST; conditions: 60 uM amicoumacin A, MST: buffer TAKM7 (7 mM Mg2+; full composition not in material), 30 min at 37 C, A-site peptidyl-tRNA: buffer TAKM with 7-20 mM Mg2+, nitrocellulose …
[4] = system: 70S ribosome pretranslocation complex, deacylated tRNAfMet in P site, A site; assay: nitrocellulose filter binding, koff/kon; conditions: 7 mM Mg2+, aminoacylated with fMet-Val dipeptide, MST: buffer TAKM7 (7 mM Mg2+; full composition not in material), 30 min at 37 C, A-site peptidyl-tRNA: buffer TAKM with 7-20 mM Mg2+

Row | Substance | Kd ([1]; 60 uM amicoumacin A) | Kd ([2]; no IF3, amicoumacin A) | Kd ([2]; no IF3, no antibiotic) | Kd ([1]; 30 uM edeine) | Kd ([1]; 60 uM kasugamycin) | Kd ([1]; no antibiotic) | Kd [3] | Kd ([4]; 30 uM amicoumacin A) | Kd ([4]; no antibiotic)
1 | model mRNA UUC start codon | 584 nM | 587 nM | 1270 nM | – | – | – | – | – | –
2 | model mRNA AUG (Met-Phe) | 169 nM | 77 nM | 1280 nM | 568 nM | 59 nM | 18 nM | 940 nM | – | –
3 | fMet-[14C]Val-tRNAVal | – | – | – | – | – | – | – | 461 nM | 688 nM
